Experimental findings from publication PMC4662854, “Structure and function of the N‐terminal domain of the human mitochondrial calcium uniporter” (EMBO Reports, 2015) are described below.

The data set deals with the molecule itself. Description: cross-linking; glutaraldehyde cross-linking of MCU NTD-E in solution, in PBS and in crystallization conditions.

B1: MCU NTD-E (extended N-terminal domain of MCU, residues 75-185) (domain or fragment, human, UniProt Q8NE86-1 75-185, looked up)
chain: VTVVYQNGLPVISVRLPSRRERCQFTLKPISDSVGVFLRQLQEEDRGIDRVAIYSPDGVRVAASTGIDLLLLDDFKLVINDLTYHVRPPKRDLLSHENAATLNDVKTLVQQ
notes: mitochondrial calcium uniporter (MCU), human, NP_612366, residues 75-185; In the crystal residues 183-185 were not modelled and the imidazole ring of His170 is possibly modified by unidentified adducts; source: purified (Ni-NTA, SEC on Superdex 75) by a procedure similar to that of T4 lysozyme-MCU NTD; cloned into pColdII
In the case of B1, the binding result is listed as “binds”.
